# Experiment: protease stability score; higher = more stable; yeast display proteolysis, trypsin and chymotrypsin;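 further: relative to predicted unfolded state with 0 unfolded-like and 1 meaning tenfold more protease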
row,Sequence,protease stability score
1,DHVEEEAEEFVRNFIHNMRTGNWKYMEELLDPNVRLRYGDKDHHGREEMVKWIEEAFKKFKNLTIEIKHINIIGDKLIFDLHVEFNGKHHQLHLIVTKIDGKWISKSIHVD,1.47
2,DHVEEVVRQMVSHILRDYITGDEKSYASLMDPNMRLHIGDKDSIGREEVLRLIREHTRHLGIKHFHLHDVRIRIQGEYVEIKIDVHLEFNGRKFRVIIHLEMHKVNGRWRLHEETIEIE,2.61
3,DHVEHEVENVLRKTLHSFLTGDFELLHRLADPHVRSDINGVEIHGWEKLSKWILTLIEQVDHSEFDLKDIRLQGDFVRIHGELILRFNGKHIEIRVQSHVEKIDGRWVIHAVKLK,1.11
4,DHVEKEARKFEKLLRHAETTGDEELYLKMIDPNVRIIIGEKNLVGREEVEKWLQTLGVSKVEIRHVEEKDIEIDEDHIRIHGRIIGRYNGKERDFEKHIIVQKIDGKWVLHTEEIR,0.385
5,DHWEELIERALDFHRSLLRTGDPEVLERQADPNAKFVVGDKTLHGRESVSDWMNRVKNIQIHMRDLHVIDGKIEMHVQMHYDGRTSHTRLIADKVDGRWIYRSVSVE,0.69
6,DHWEHVERMYSHEVLHMLETGDEHKFNKLMDPNARIDVGEWDLIGMHRVSHALKEVRDELGIKHSEVKHVDIFNGRVEIHTEVHVDGRSHKVRIEVIYVNGRTKWMRYEQH,0.717
7,DIEERDAEEAVRRWLHFLQTGDEDWLREQLDPNTRIDIDGREIHGMEEVVNVLLRESRHLGVDVLSFELRHVDRQGDKIIVYGRIRLRVNGRDTEIEVILYMVKVNGVWLMKSMEFR,1.89
8,DKDDHDFERVLRIFIESIRTGDEDSIRRLADPSVKHVVNGKEFHGREDWEEMIRRIDHIRDFELKSVSIYNGKIEVDGVLTGIFNGREDKTHVHIIMMKVNGRWYIKSWELK,1.93
9,DKDEDDERKAIDTLVDVLRTGDEHTLQRLLDPNVQLHIGDKRHHGRDEVIRVLHELHRRLGVTRVEVEIQEYHMVDGQIDLRVHLKYGDKTIESEFVLYKVNGRWFVKSLHFK,2.24
10,DKDEEDLRHVLHLLSRAFMTGDEDELTKLMDPDVRIYYGDKRLHGREEVTRWIREIRAWVHDSKIRHIRRQGEKIILHGEMDMIFDQGDKEVRTRTEITIHTTKINGRWLLNELELR,2.6
11,DKDEKETKDAIHILLHVARTGDERLLNTLFDPDVKLEVGDKSHHGRETITKVWKDWFHEWRIRDVTYHHVESQGDKIHVDLRIDGIFDGQRTHIESHNVLLKVNGQWLLRREVVH,0.512
12,DKDERMRNEAFKITEHLHHTGDWHTRSRLADPEVQLIIGDKEYHGRETASEVLHKYLKRLGVDHLELKHFEVKMFDGQLHIHLHIELHINGVIYEVHIHIVMEKINGRWVIKHERIEFR,1.01
13,DKEDEDIKHLVDRIIHFWETGDFESLLKNVDPNARVEEIFNGKKYHSHGREEFERTLQEWLDRYKNVTIHIREVRMFNGVAIIHAELLIGDKRHEVHLHWFIYDGVLRHVRIQFE,1.49
14,DKEDEDMERIVKEFLHLHLTGDWKLMAELLDPDVRVEFDGKRYHGRENWSKLLEDEFRRIKNATIRIEIKHIDLQGDFARSEVVLHIIVNGVEHRHEMQIDMKVVNGRIHSIRIVRV,1.47
15,DKEDEEAKRLLEIFITHHLTGDEEHYQTLMDPHARLDFDGRHNVGREKITEFLRRFGADHVHIKHIEVELYNGKLYVRIEVELRIGDKTMDMIWVLQLRKVDGRWHIRRETWILL,0.703
16,DKEDEERKRWEERMLQAITTGDEKTLEDLIDPNARYEINGRERHGREDLLKEFSKIKNVRIELRIHHVRFYDGQLEIDLRLILHIDGVDLRHETRIHAQKYDGVWYIKDITFH,1.02
17,DKEDREAHFLARLFLKIEETGDEETMHKYFDPHVRWIQGDWHMHGREDIIEFVRHMGVTIQMHDHEDIKVFDGRVQIKGHKRVNINGKQFEISVRIDINVINGRIRKVQIDEK,1.32
18,DKEEDEFRKAFEIVRHTWKTGDEHLLEKLMDPDARMDVNGVHNHGREEATKTVFEIVEKIKNARLEFKRIEVYDGRIFFHMDWDVNGVRVFVLIISIKVDGRWRHKSYSEDRV,0.856
19,DKEEEDSDEALKWFFDVLRTGDERLIREMLDPDARIEIDGVPSHGRESVEEFVHRIRNMKVDDFQVKRIDVQGDKVRLDTHFDGTINGVRRQVDLTIIARKINGRWFNESISIK,1.91
20,DKEEEDVKKFTDEFIHHYLTGDWEKIRELADPNVRLIVGDKTLHGRELFIDWLRDELRRIDHIEHHVHRMSVINGKVHIDAELRIYINGRLHQTRIEIHLVIIDGRMRMVELRFR,2.13
21,DKEEEEVREALRILLEEWHTGDFDRILDLFDPNDRMHIGDKDLHGRHIMEHFYDHMIKRVKNMRIELTDVRFQGDKVWFHVKEHFDGRTISSEIVLVKINGKWRIETIFII,1.46
22,DKEEEHMREMVRLYQHIRLTGNEEVIRNLADPTMRFDLDFEEKRVTAIGREQYLRVTDKLKKDLGLENIEVRVKEMEAFDGVIHINGHERFNGRSYDTHIWLVIVNGRWEFIRIEIR,0.116
23,DKEEEKSREFFRIFYELWLTGNEELNERLADPNVYVDINGQEIHGMHVAKNVLTRELEELRVKDIKIDDYKTQGEKAVFHGKWEGYVDGRDSMEHVTVILTVVDGKVDNMSIKFD,0.97
24,DKEEELIRELMEQFTHWLITGNWKKIVDMADPNVQILYNGQEFHGREELHKALQELLEKLGFKHIEIRRKHVVDGRVHLDGRSIINGRRFEVEYISVIINGVIKEIELRVE,1.95
25,DKEEELMKTFSQLFEHWVETGDETEMLQNADPHAKSRFNGREIHGREDIVELLKRIIDQADHHEVHTDKVKVVGDKIHINSSFHIHIGEFTIRLHYELIVDKINGRWILKEVRLG,0.927

row,Sequence,protease stability score
1,DKEEELSEIAHKIWIHELHTGDFESLEKNMDPHARIIQGDWHYHGRESVYHVFSRIVRMLGVKHIEIHSMEVINGQVHLDTRLHAEGHSRNTHVFFVKINGRWLSKEFEIK,0.711
2,DKEEELVKKFLELWLHALRTGDEDFIRELFDPHARFVFDGRDFHGMEEFIRIMRHIRFHHIHLHHFDLQGDYVRLDTRVDGNVDGKRVTINTHMIMHKVNGRWVLESYTID,0.839
3,DKEEEMVRHTATRFLHLLLTGDEEIITHLADPNMRIEVGDKESHGREHFADVIKEFSDHMRIKEWHIEVNEVVNGRILFDIHVDGIIGDKEDRIRFHLDIVVVNGKIKHVRIKIK,1.15
4,DKEEHDMKRLADLMKRIFETGDWEEFWSLVDPNVRLHWIVNGREYEVIGRENASEMIEITLELLGVDHVEIHDIDVQGDKVHMKTRSIVNGREIDDNYHYIIVDGRLRRVEIKLK,1.81
5,DKEEHDVHNMWQHLVEVLLTGNEEAIHENLDPDAKLEVGDKRYHGRELVSEVWSRLGINVIQLDDMRPIGNKVHVETTTHFNGKTLEMRIDAHKVNGRWLSESLIIR,0.951
6,DKEEHLVKILIEILHREWETGDEDSISRNADPNTRVDIGDKHFHGREDAMEVLKRMLHQFPNIKFHIEDMRIIGNFVEIDVVINWNGKDVKSHLVFFKINGRWLTRHVEIR,1.32
7,DKEEKEAREWSKRFLHLFLTGNEEEFKRLMDPHTQSMLLIDGKRDTHHGRDEATKLLSDWLNHMRLRELRVHDIKVQGDKATLDIRLNVEFNGVELERTSEIIIVVFDGRIKSVIFRIE,1.55
8,DKEEKELEELVKLMVELSDTGDWKTFYQLADPHTKLHNLVDGKWDEQHGRENFVEVERKLRERFKGLRVERHDISVQGNKVHVDVILHVNGREMEIDEVFVIINGKLESVEIHVR,1.19
9,DKEERYLEIAVNVIRHQLETGNEEDLLRNIDPDTRLFIDGRLFHGWETAHYLLRKVKNARIEIRSVHLIGDKIHMDTELIVNGVLRETEITARKVDGQWTWHHIRIE,1.39
10,DKEEVEKIAREALEAAVKGDEDKLKTYLGPDVKYVLGDQEYQGQQVAELVMKLIKKDGARLQLETLKVEGNTVQAQYQFHVDGVTRKAHITMKVKGGRVDEWQVHIDDHAKEALKKG,1.89
11,DKEFEDVIRMAEHEMKLMETGDWKTHEHLADPNYRVDINGREHIGWDHFVRWLFHMRIHRIEIKEVRVQGEKATLRLKVDGEQGDKRFKTDIEFSLLIVDGRIKEIHIILH,1.36
12,DKEHKESTKATHDVLRSWKTGDERFREELADPNARMEFNGREHVGREFMSELLRHLWEELGVDHMELKRVIIQGDKIHIDMDLTVGDKSIHLHVTVQKINGKWIIKSIRLELT,-0.192
13,DKEKEDAVRIVEHWIEALLTGDEHELKKYLDPEVRVEINGRDIHGMHLWSEHFKELRHEELHIHIRTVHVFDGKMSVEGELRIVGEVDGRRTDIIYHTEIEIEKVDGRWHIHHIHLR,-0.195
14,DKEKEDLKKLSDWWLHAIETGDFETIFRLLDPHVRIEINIGDKTHSIHGREEFYKWLHRVKNLQMTIHHSEPIGDKIRLHGFFVIDGVHHDTRHELYFIDGRLHEVHIHVI,2.21
15,DKELHIAYHLLKVFEHTLATGDEETSERLLDPDVRFWINGVDFHGWELFSTFMKHARFSFRDSRFHDNRLVNGQINLVGRVRLEIDVDGRRHHTETDVRVVILKVDGRWVIHSMEFK,1.46
16,DKENHLMRELTRLIVDYINTGDWKEFRKLADPHVRIVIEVGDKRIERHGMEDWLKLVRDRLEEIRTHIEVHDVEAQGDKAHLDGRIRLIVGEFEIVIESRIKVVSIDGKLKEISVHMV,1.48
17,DKEREHLKQLAEIIIHLWHTGDEEILMHLADPNTRLIIEWNGQESQYHGREEMYTIIRRIYEELGADHIHIEDHDVQGDKVIIHSRLEQGDKRVELHLIVVFVNGRLKEMHIHINDK,2.34
18,DKETKDSEKMSRMYFEYLLTGDFEKLLEMADPDVRFEFNGKEYIGMHETIEILERIWKDLGIKHSELKKVELQGEKAIIDGRIKYGDKEVNVKIILLVWNGKMREQRIHYQ,1.1
19,DKFERDLEEALREVLEALETGDEDRLLNLFDPHARIDIDGRDLHGWEDLTRELREIRIRHIHLHDRRIQGEWIHFDTITDGEFNGQRTTVRTHILMLKFDGRWMIREVTFI,1.51
20,DKHEEALEIAIRLLELVWKTGDFEDFVRLLDPHTRFHYGDKDFIGMELWLRLHEHLGITQIEIRSTHHHRIHAQGDKVILDIEIEGIIGDKETRHRIKLVVVKVDGRWKIKEVHIR,1.09
21,DKIKHLEDEIEKIFFETIETGDEHLFNQLVDPNVRVRIGDKHSVGREHVERVEREHREHMGVDHVEIRIHDSRTFNGVIHIEGKLHYHVNGRRHEHRIHIFLVVWDGVVRHLEIEIR,0.305
22,DKKEKDAKEAFDWLVKHVRTGDETMLHELMDPDVKLEIGDKHIVGRENVVHVFSRLIERADHMEFILTDMKVYDGRVESDTILVLHIDGVEIRRKTKITVIKINGRWLLHTVHIE,1.31
23,DKKQVHDVARTLVQYYVSGNSERVKQLGKEDVELHAGDRTYHGVDQMAKVVEQFKKYGVELEVKDVKVDGNRVTARVQFHKAGTTWEFKVDVQADGGKVDQVRVNVTEEAIKHIQHG,0.715
24,DKLDKLLREMLELFNHLLKTGDWDTITKLVDPNVRIDINGQELHGMELILEWWLRLGIRNEHERERDRDSQGEFMHVEGHRHIRINGQSTRFDTILHIEIIDGRIKDIKVNLI,1.12
25,DKLEKWAEHMVHLIFRAFETGDWRMLSKYFDPDTRHHVGNFHLVGMEDFIKLARELSERLGMEIDRVHVRHFDTQGDKLTVEIIVHSRVGDKEETRETIILVSKYNGRWHLSSIEIK,1.39
